Target: Human IgG in human serum

B1: Recombinant IdeS expressed from codon-optimized cDNA IdeS^op2 (pGEX-IdeS^op2), designated Ab-C (protein)
chain: RKRCYSTSAVVLAAVTLFALSVDRGVIADSFSANQEIRYSEVTPYHVTSVWTKGVTPPAKFTQGEDVFHAPYVANQGWYDITKTFNGKDDLLCGAATAGNMLHWWFDQNKEKIEAYLKKHPDKQKIMFGDQELLDVRKVINTKGDQTNSELFNYFRDKAFPGLSARRIGVMPDLVLDMFINGYYLNVYKTQTTDVNRTYQEKDRRGGIFDAVFTRGDQSKLLTSRHDFKEKNLKEISDLIKKELTEGKALGLSHTYANVRINHVINLWGADFDSNGNLKAIYVTDSDSNASIGMKKYFVGVNSAGKVAISAKEIKEDNIGAQVLGLFTLSTGQDSWNQTN
IgG cleavage, PAGE-Coomassie stain, purified normalized IdeS samples incubated with human serum for 1 h: The results showed more effective IgG cleavage by IdeS^op2

Source: patent publication US20240271115A1
